The target in assay [1] is SPHK1 (sphingosine kinase 1) (UniProt Q9NYA1). Kind of assay: Co-IP of Flag-PKR with endogenous SPHK1. The note with it: reference: wild-type PKR-Flag; sites T451.
Assay [2] has the same target. Kind of assay: GST-SPHK1 pull-down of Flag-purified PKR. The note with it: reference: wild-type PKR-Flag; sites T451.
A further assay addresses T1, GST-PKR (human, UniProt P19525 1-551).
T1 construct: double-stranded RNA-dependent protein kinase R (PKR), human, full-length cDNA; also called PKR (in vitro); source: prokaryotic expression (pGEX-4T1/pET28a vectors)
Put plainly: pull-down; Flag-tagged SPHK1 (wild type, 225A, 225D) immunoprecipitated with anti-Flag from HEK293T lysates, purified and co-incubated with GST-PKR. The note with it: both partners purified.

Another assay has as its target T2, PKR-Flag (wild type) (human, UniProt P19525 1-551).
T2 construct: double-stranded RNA-dependent protein kinase R (PKR), human, full-length cDNA; also called wild-type PKR; Flag-PKR; source: HEK293T, transfected, in lysate; also purified from the lysate for the GST pulldown; not shown: Flag, C-terminal, kept
Kind of assay: pull-down; Flag-tagged PKR (wild type, 451A, 451D) purified from HEK293T and co-incubated with GST-SPHK1. The note with it: both partners purified.

The next assay has as its target T3, PKR^451A-Flag (human, UniProt P19525 1-551, T451A).
T3 construct: double-stranded RNA-dependent protein kinase R (PKR), human, full-length cDNA, point mutant at Thr451; also called T451A; source: HEK293T, transfected, in lysate; also purified from the lysate for the GST pulldown; not shown: Flag, C-terminal, kept
The description is as above. The following applies: both partners purified.

The next assay addresses T4, PKR^451D-Flag (human, UniProt P19525 1-551, T451D).
T4 construct: double-stranded RNA-dependent protein kinase R (PKR), human, full-length cDNA, point mutant at Thr451; also called T451D; source: HEK293T, transfected, in lysate; also purified from the lysate for the GST pulldown; not shown: Flag, C-terminal, kept
The assay is described as above. The following applies: both partners purified.

T1 sequence (P19525 whole entry): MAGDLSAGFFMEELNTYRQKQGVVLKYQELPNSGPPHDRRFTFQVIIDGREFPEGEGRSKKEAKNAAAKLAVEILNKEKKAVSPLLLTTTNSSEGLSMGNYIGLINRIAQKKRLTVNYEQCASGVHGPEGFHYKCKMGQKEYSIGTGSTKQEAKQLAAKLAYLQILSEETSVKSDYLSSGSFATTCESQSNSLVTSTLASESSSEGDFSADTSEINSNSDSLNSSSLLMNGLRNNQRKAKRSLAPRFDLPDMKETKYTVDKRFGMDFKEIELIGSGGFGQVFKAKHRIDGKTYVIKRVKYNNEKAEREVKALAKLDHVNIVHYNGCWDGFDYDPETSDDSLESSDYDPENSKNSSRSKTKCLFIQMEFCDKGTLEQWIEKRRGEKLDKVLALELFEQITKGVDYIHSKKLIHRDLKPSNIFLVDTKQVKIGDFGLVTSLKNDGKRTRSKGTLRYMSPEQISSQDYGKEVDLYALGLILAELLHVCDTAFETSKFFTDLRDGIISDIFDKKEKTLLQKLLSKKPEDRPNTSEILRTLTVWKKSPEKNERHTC
T2 sequence (P19525 whole entry): as above
T4 sequence (P19525 whole entry T451D): as the sequence (P19525 whole entry) above, with T451D counted along it
T3 sequence (P19525 whole entry T451A): as the sequence (P19525 whole entry) above, with T451A counted along it

In the case of “PKR (dsRNA-dependent protein kinase R) (from UniProt P19525) T451A”, the “binding against the reference” value in assay [1] and in assay [2] was “stronger” in each case.

B1: SPHK1^225D-Flag (phosphomimetic mutant of SPHK1) (enzyme, human, UniProt Q9NYA1 1-384, looked up)
chain: MDPAGGPRGVLPRPCRVLVLLNPRGGKGKALQLFRSHVQPLLAEAEISFTLMLTERRNHARELVRSEELGRWDALVVMSGDGLMHEVVNGLMERPDWETAIQKPLCSLPAGSGNALAASLNHYAGYEQVTNEDLLTNCTLLLCRRLLSPMNLLSLHTASGLRLFSVLSLAWGFIADVDLESEKYRRLGEMRFTLGTFLRLAALRTYRGRLAYLPVGRVGSKTPADPVVVQQGPVDAHLVPLEEPVPSHWTVVPDEDFVLVLALLHSHLGSEMFAAPMGRCAAGVMHLFYVRAGVSRAMLLRLFLAMEKGRHMEYECPYLVYVPVVAFRLEPKDGKGVFAVDGELMVSEAVQGQVHPNYFWMVSGCVEPPPSWKPQQMPPPEEPL
notes: sphingosine kinase 1 (SPHK1), human, full-length cDNA, point mutant at Ser225; source: HEK293T, transfected, in lysate; also purified from the lysate with anti-Flag for the GST pulldown; not shown: Flag, C-terminal, kept
Take B1: the binding result in the assay with GST-PKR is reported as “binds”.

B2: GST-SPHK1 (enzyme, human, UniProt Q9NYA1 1-384, looked up)
chain: MDPAGGPRGVLPRPCRVLVLLNPRGGKGKALQLFRSHVQPLLAEAEISFTLMLTERRNHARELVRSEELGRWDALVVMSGDGLMHEVVNGLMERPDWETAIQKPLCSLPAGSGNALAASLNHYAGYEQVTNEDLLTNCTLLLCRRLLSPMNLLSLHTASGLRLFSVLSLAWGFIADVDLESEKYRRLGEMRFTLGTFLRLAALRTYRGRLAYLPVGRVGSKTPASPVVVQQGPVDAHLVPLEEPVPSHWTVVPDEDFVLVLALLHSHLGSEMFAAPMGRCAAGVMHLFYVRAGVSRAMLLRLFLAMEKGRHMEYECPYLVYVPVVAFRLEPKDGKGVFAVDGELMVSEAVQGQVHPNYFWMVSGCVEPPPSWKPQQMPPPEEPL
notes: sphingosine kinase 1 (SPHK1), human, full-length cDNA in pGEX-4T1; pGEX-4T1 normally adds GST at the N-terminus; also called purified SPHK1; source: Rosetta bacterial cells, purified on Glutathione Sepharose beads
On to B2, for which the binding result in the assay with PKR-Flag (wild type), with PKR^451A-Flag and with PKR^451D-Flag was “binds” throughout.

The values above are taken from publication PMC7852545, “Cell fate determined by the activation balance between PKR and SPHK1” (Cell Death and Differentiation, 2020).
